Source: IntAct's records for PubMed 16154084

B1: Interferon regulatory factor 3 (Homo sapiens), Q14653 (parent)
chain: MGTPKPRILPWLVSQLDLGQLEGVAWVNKSRTRFRIPWKHGLRQDAQQEDFGIFQAWAEATGAYVPGRDKPDLPTWKRNFRSALNRKEGLRLAEDRSKDPHDPHKIYEFVNSGVGDFSQPDTSPDTNGGGSTSDTQEDILDELLGNMVLAPLPDPGPPSLAVAPEPCPQPLRSPSLDNPTPFPNLGPSENPLKRLLVPGEEWEFEVTAFYRGRQVFQQTISCPEGLRLVGSEVGDRTLPGWPVTLPDPGMSLTDRGVMSYVRHVLSCLGGGLALWRAGQWLWAQRLGHCHTYWAVSEELLPNSGHGPDGEVPKDKEGGVFDLGPFIVDLITFTEGSGRSPRYALWFCVGESWPQDQPWTKRLVMVKVVPTCLRALVEMARVGGASSLENTVDLHISNSHPLSLTSDQYKAYLQDLVEGMDFQGPGES

Variants of: B1
Conditions: with cbp_human CREBBP

Effect of a mutation on the interaction, disrupting interaction:
MGTPKPRILPWLVSQLDLGQLEGVAWVNKSRTRFRIPWKHGLRQDAQQEDFGIFQAWAEATGAYVPGRDKPDLPTWKRNFRSALNRKEGLRLAEDRSKDPHDPHKIYEFVNSGVGDFSQPDTSPDTNGGGSTSDTQEDILDELLGNMVLAPLPDPGPPSLAVAPEPCPQPLRSPSLDNPTPFPNLGPSENPLKRLLVPGEEWEFEVTAFYRGRQVFQQTISCPEGLRLVGSEVGDRTLPGWPVTLPDPGMSLTDRGVMSYVRHVLSCLGGGLALWRAGQWLWAQRLGHCHTYWAVSEELLPNSGHGPDGEVPKDKEGGVFDLGPFIVDLITFTEGSGRSPRYALWFCVGESWPQDQPWTKRLVMVKVVPTALRAAVEAARVGGASSLENTVDLHISNSHPLSLTSDQYKAYLQDLVEGMDFQGPGES [C371A;L375A;M378A]
MGTPKPRILPWLVSQLDLGQLEGVAWVNKSRTRFRIPWKHGLRQDAQQEDFGIFQAWAEATGAYVPGRDKPDLPTWKRNFRSALNRKEGLRLAEDRSKDPHDPHKIYEFVNSGVGDFSQPDTSPDTNGGGSTSDTQEDILDELLGNMVLAPLPDPGPPSLAVAPEPCPQPLRSPSLDNPTPFPNLGPSENPLKRLLVPGEEWEFEVTAFYRGRQVFQQTISCPEGLRLVGSEVGDRTLPGWPVTLPDPGMSLTDRGVMSYVRHVLSCLGGGLALWRAGQWLWAQRLGHCHTYWAVSEELLPNSGHGPDGEVPKDKEGGVFDAGAFAADAATFTEGSGRSPRYALWFCVGESWPQDQPWTKRLVMVKVVPTCLRALVEMARVGGASSLENTVDLHISNSHPLSLTSDQYKAYLQDLVEGMDFQGPGES [L322A;P324A;I326A;V327A;L329A;I330A]
MGTPKPRILPWLVSQLDLGQLEGVAWVNKSRTRFRIPWKHGLRQDAQQEDFGIFQAWAEATGAYVPGRDKPDLPTWKRNFRSALNRKEGLRLAEDRSKDPHDPHKIYEFVNSGVGDFSQPDTSPDTNGGGSTSDTQEDILDELLGNMVLAPLPDPGPPSLAVAPEPCPQPLRSPSLDNPTPFPNLGPSENPLKRLLVPGEAWAFEVTAFYRGRQVFQQTISCPEGLRLVGSEVGDRTLPGWPVTLPDPGMSLTDRGVMSYVRHVLSCLGGGLALWRAGQWLWAQRLGHCHTYWAVSEELLPNSGHGPDGEVPKDKEGGVFDLGPFIVDLITFTEGSGRSPRYALWFCVGESWPQDQPWTKRLVMVKVVPTCLRALVEMARVGGASSLENTVDLHISNSHPLSLTSDQYKAYLQDLVEGMDFQGPGES [E201A;E203A]
MGTPKPRILPWLVSQLDLGQLEGVAWVNKSRTRFRIPWKHGLRQDAQQEDFGIFQAWAEATGAYVPGRDKPDLPTWKRNFRSALNRKEGLRLAEDRSKDPHDPHKIYEFVNSGVGDFSQPDTSPDTNGGGSTSDTQEDILDELLGNMVLAPLPDPGPPSLAVAPEPCPQPLRSPSLDNPTPFPNLGPSENPLKRLLVPGEEWEFEVTAFYRGRQVFQQTIACPEGLRLVGSEVGDRTLPGWPVTLPDPGMSLTDRGVMSYVRHVLSCLGGGLALWRAGQWLWAQRLGHCHTYWAVSEELLPNSGHGPDGEVPKDKEGGVFDLGPFIVDLITFTEGSGRSPRYALWFCVGESWPQDQPWTKRLVMVKVVPTCLRALVEMARVGGASSLENTVDLHISNSHPLSLTSDQYKAYLQDLVEGMDFQGPGES [S221A]
